Where two headings read alike, the source gives them in different places. [ ]: non-standard residue; d: D form.
Tests used:
[1] = biological target: T1, (7× His)-PSD-95-PDZ2 wild type (UniProt P78352 160-246); experiment: FP competition
T1 construct: domain: PDZ2; recombinant from E. coli; also called PSD-95-PDZ2 WT; not shown: 7x His tag

[2] = biological target: T1, (7× His)-PSD-95-PDZ2 wild type; experiment: FP competition; remark: listed apart in the source
Procedure: Fluorescence polarization (FP). FP assays were performed in a 384-well plate format. Fluorescence polarization was measured using a Safire 2 plate reader. The instrument Z-factor was optimized for each assay. The G-factor was calibrated to an initial milli polarization value of 20. […] Every measurement was performed in NaPI 50 mM, 50 mM NaCl and 1% BSA at pH 7.2, 25° C. […] The curves were done in triplicates. Then, the polarization was fitted into a one-site binding model using Prism software 8.0 (GraphPad), from which the Kd can be measured. […] The mili polarization (mP) values were plotted as a function of peptide concentration and fitted to a sigmoidal dose-response curve using Prism software 8.0 (GraphPad). The Kᵢ values were calculated according to Nikolovska-Coleska Z. et al.⁴⁰⁻⁴¹

T1 sequence (P78352 160-246): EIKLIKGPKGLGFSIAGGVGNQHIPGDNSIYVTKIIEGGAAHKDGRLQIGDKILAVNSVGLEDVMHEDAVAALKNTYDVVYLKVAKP

Ki [1] [nM]	Relative Ki (Ki mut/Ki WT) [1]	Ki [2] [nM]	Relative Ki (Ki mut/Ki WT) [2]	Binder
3220	2.15	–	–	cyclo(THLETTFTGAGTPKTIRVTQ[dP]GQ) (SMILES CC[C@H](C)[C@@H]1NC(=O)[C@H]([C@@H](C)O)NC(=O)[C@H](CCCCN)NC(=O)[C@@H]2CCCN2C(=O)[C@H]([C@@H](C)O)NC(=O)CNC(=O)[C@H](C)NC(=O)CNC(=O)[C@H]([C@@H](C)O)NC(=O)[C@H](Cc2ccccc2)NC(=O)[C@H]([C@@H](C)O)NC(=O)[C@H]([C@@H](C)O)NC(=O)[C@H](CCC(=O)O)NC(=O)[C@H](CC(C)C)NC(=O)[C@H](Cc2c[nH]cn2)NC(=O)[C@H]([C@@H](C)O)NC(=O)[C@H](CCC(N)=O)NC(=O)CNC(=O)[C@H]2CCCN2C(=O)[C@H](CCC(N)=O)NC(=O)[C@H]([C@@H](C)O)NC(=O)[C@H](C(C)C)NC(=O)[C@H](CCCNC(=N)N)NC1=O) [cyclic nNOS β-hairpin peptide D114A]
–	–	1270	0.85	cyclo(THLETTFTGDGTPKTIRYTQ[dP]GQ) (SMILES CC[C@H](C)[C@@H]1NC(=O)[C@H]([C@@H](C)O)NC(=O)[C@H](CCCCN)NC(=O)[C@@H]2CCCN2C(=O)[C@H]([C@@H](C)O)NC(=O)CNC(=O)[C@H](CC(=O)O)NC(=O)CNC(=O)[C@H]([C@@H](C)O)NC(=O)[C@H](Cc2ccccc2)NC(=O)[C@H]([C@@H](C)O)NC(=O)[C@H]([C@@H](C)O)NC(=O)[C@H](CCC(=O)O)NC(=O)[C@H](CC(C)C)NC(=O)[C@H](Cc2c[nH]cn2)NC(=O)[C@H]([C@@H](C)O)NC(=O)[C@H](CCC(N)=O)NC(=O)CNC(=O)[C@H]2CCCN2C(=O)[C@H](CCC(N)=O)NC(=O)[C@H]([C@@H](C)O)NC(=O)[C@H](Cc2ccc(O)cc2)NC(=O)[C@H](CCCNC(=N)N)NC1=O) [cyclic nNOS β-hairpin peptide V122Y]
1760	1.17	–	–	cyclo(THLETTFTGDGTPKTARVTQ[dP]GQ) (SMILES CC(C)C[C@@H]1NC(=O)[C@H](Cc2c[nH]cn2)NC(=O)[C@H]([C@@H](C)O)NC(=O)[C@H](CCC(N)=O)NC(=O)CNC(=O)[C@H]2CCCN2C(=O)[C@H](CCC(N)=O)NC(=O)[C@H]([C@@H](C)O)NC(=O)[C@H](C(C)C)NC(=O)[C@H](CCCNC(=N)N)NC(=O)[C@H](C)NC(=O)[C@H]([C@@H](C)O)NC(=O)[C@H](CCCCN)NC(=O)[C@@H]2CCCN2C(=O)[C@H]([C@@H](C)O)NC(=O)CNC(=O)[C@H](CC(=O)O)NC(=O)CNC(=O)[C@H]([C@@H](C)O)NC(=O)[C@H](Cc2ccccc2)NC(=O)[C@H]([C@@H](C)O)NC(=O)[C@H]([C@@H](C)O)NC(=O)[C@H](CCC(=O)O)NC1=O) [cyclic nNOS β-hairpin peptide I120A]
1610	1.07	–	–	cyclo(THLETTFTGDGTAKTIRVTQ[dP]GQ) (SMILES CC[C@H](C)[C@@H]1NC(=O)[C@H]([C@@H](C)O)NC(=O)[C@H](CCCCN)NC(=O)[C@H](C)NC(=O)[C@H]([C@@H](C)O)NC(=O)CNC(=O)[C@H](CC(=O)O)NC(=O)CNC(=O)[C@H]([C@@H](C)O)NC(=O)[C@H](Cc2ccccc2)NC(=O)[C@H]([C@@H](C)O)NC(=O)[C@H]([C@@H](C)O)NC(=O)[C@H](CCC(=O)O)NC(=O)[C@H](CC(C)C)NC(=O)[C@H](Cc2c[nH]cn2)NC(=O)[C@H]([C@@H](C)O)NC(=O)[C@H](CCC(N)=O)NC(=O)CNC(=O)[C@H]2CCCN2C(=O)[C@H](CCC(N)=O)NC(=O)[C@H]([C@@H](C)O)NC(=O)[C@H](C(C)C)NC(=O)[C@H](CCCNC(=N)N)NC1=O) [cyclic nNOS β-hairpin peptide P117A]
4550	3.03	–	–	cyclo(THLETTFTADGTPKTIRVTQ[dP]GQ) (SMILES CC[C@H](C)[C@@H]1NC(=O)[C@H]([C@@H](C)O)NC(=O)[C@H](CCCCN)NC(=O)[C@@H]2CCCN2C(=O)[C@H]([C@@H](C)O)NC(=O)CNC(=O)[C@H](CC(=O)O)NC(=O)[C@H](C)NC(=O)[C@H]([C@@H](C)O)NC(=O)[C@H](Cc2ccccc2)NC(=O)[C@H]([C@@H](C)O)NC(=O)[C@H]([C@@H](C)O)NC(=O)[C@H](CCC(=O)O)NC(=O)[C@H](CC(C)C)NC(=O)[C@H](Cc2c[nH]cn2)NC(=O)[C@H]([C@@H](C)O)NC(=O)[C@H](CCC(N)=O)NC(=O)CNC(=O)[C@H]2CCCN2C(=O)[C@H](CCC(N)=O)NC(=O)[C@H]([C@@H](C)O)NC(=O)[C@H](C(C)C)NC(=O)[C@H](CCCNC(=N)N)NC1=O) [cyclic nNOS β-hairpin peptide G113A]
3540	2.36	–	–	cyclo(THAETTFTGDGTPKTIRVTQ[dP]GQ) (SMILES CC[C@H](C)[C@@H]1NC(=O)[C@H]([C@@H](C)O)NC(=O)[C@H](CCCCN)NC(=O)[C@@H]2CCCN2C(=O)[C@H]([C@@H](C)O)NC(=O)CNC(=O)[C@H](CC(=O)O)NC(=O)CNC(=O)[C@H]([C@@H](C)O)NC(=O)[C@H](Cc2ccccc2)NC(=O)[C@H]([C@@H](C)O)NC(=O)[C@H]([C@@H](C)O)NC(=O)[C@H](CCC(=O)O)NC(=O)[C@H](C)NC(=O)[C@H](Cc2c[nH]cn2)NC(=O)[C@H]([C@@H](C)O)NC(=O)[C@H](CCC(N)=O)NC(=O)CNC(=O)[C@H]2CCCN2C(=O)[C@H](CCC(N)=O)NC(=O)[C@H]([C@@H](C)O)NC(=O)[C@H](C(C)C)NC(=O)[C@H](CCCNC(=N)N)NC1=O) [cyclic nNOS β-hairpin peptide L107A]
1430	0.95	–	–	cyclo(THLETTFTGDGTPATIRVTQ[dP]GQ) (SMILES CC[C@H](C)[C@@H]1NC(=O)[C@H]([C@@H](C)O)NC(=O)[C@H](C)NC(=O)[C@@H]2CCCN2C(=O)[C@H]([C@@H](C)O)NC(=O)CNC(=O)[C@H](CC(=O)O)NC(=O)CNC(=O)[C@H]([C@@H](C)O)NC(=O)[C@H](Cc2ccccc2)NC(=O)[C@H]([C@@H](C)O)NC(=O)[C@H]([C@@H](C)O)NC(=O)[C@H](CCC(=O)O)NC(=O)[C@H](CC(C)C)NC(=O)[C@H](Cc2c[nH]cn2)NC(=O)[C@H]([C@@H](C)O)NC(=O)[C@H](CCC(N)=O)NC(=O)CNC(=O)[C@H]2CCCN2C(=O)[C@H](CCC(N)=O)NC(=O)[C@H]([C@@H](C)O)NC(=O)[C@H](C(C)C)NC(=O)[C@H](CCCNC(=N)N)NC1=O) [cyclic nNOS β-hairpin peptide K118A]
2470	1.65	–	–	cyclo(THLETTFTGDGTPKTIAVTQ[dP]GQ) (SMILES CC[C@H](C)[C@@H]1NC(=O)[C@H]([C@@H](C)O)NC(=O)[C@H](CCCCN)NC(=O)[C@@H]2CCCN2C(=O)[C@H]([C@@H](C)O)NC(=O)CNC(=O)[C@H](CC(=O)O)NC(=O)CNC(=O)[C@H]([C@@H](C)O)NC(=O)[C@H](Cc2ccccc2)NC(=O)[C@H]([C@@H](C)O)NC(=O)[C@H]([C@@H](C)O)NC(=O)[C@H](CCC(=O)O)NC(=O)[C@H](CC(C)C)NC(=O)[C@H](Cc2c[nH]cn2)NC(=O)[C@H]([C@@H](C)O)NC(=O)[C@H](CCC(N)=O)NC(=O)CNC(=O)[C@H]2CCCN2C(=O)[C@H](CCC(N)=O)NC(=O)[C@H]([C@@H](C)O)NC(=O)[C@H](C(C)C)NC(=O)[C@H](C)NC1=O) [cyclic nNOS β-hairpin peptide R121A]
2060	1.37	–	–	cyclo(TALETTFTGDGTPKTIRVTQ[dP]GQ) (SMILES CC[C@H](C)[C@@H]1NC(=O)[C@H]([C@@H](C)O)NC(=O)[C@H](CCCCN)NC(=O)[C@@H]2CCCN2C(=O)[C@H]([C@@H](C)O)NC(=O)CNC(=O)[C@H](CC(=O)O)NC(=O)CNC(=O)[C@H]([C@@H](C)O)NC(=O)[C@H](Cc2ccccc2)NC(=O)[C@H]([C@@H](C)O)NC(=O)[C@H]([C@@H](C)O)NC(=O)[C@H](CCC(=O)O)NC(=O)[C@H](CC(C)C)NC(=O)[C@H](C)NC(=O)[C@H]([C@@H](C)O)NC(=O)[C@H](CCC(N)=O)NC(=O)CNC(=O)[C@H]2CCCN2C(=O)[C@H](CCC(N)=O)NC(=O)[C@H]([C@@H](C)O)NC(=O)[C@H](C(C)C)NC(=O)[C@H](CCCNC(=N)N)NC1=O) [cyclic nNOS β-hairpin peptide H106A]
1510	1.01	–	–	cyclo(THLETTFTGDGTPKTIRVTA[dP]GQ) (SMILES CC[C@H](C)[C@@H]1NC(=O)[C@H]([C@@H](C)O)NC(=O)[C@H](CCCCN)NC(=O)[C@@H]2CCCN2C(=O)[C@H]([C@@H](C)O)NC(=O)CNC(=O)[C@H](CC(=O)O)NC(=O)CNC(=O)[C@H]([C@@H](C)O)NC(=O)[C@H](Cc2ccccc2)NC(=O)[C@H]([C@@H](C)O)NC(=O)[C@H]([C@@H](C)O)NC(=O)[C@H](CCC(=O)O)NC(=O)[C@H](CC(C)C)NC(=O)[C@H](Cc2c[nH]cn2)NC(=O)[C@H]([C@@H](C)O)NC(=O)[C@H](CCC(N)=O)NC(=O)CNC(=O)[C@H]2CCCN2C(=O)[C@H](C)NC(=O)[C@H]([C@@H](C)O)NC(=O)[C@H](C(C)C)NC(=O)[C@H](CCCNC(=N)N)NC1=O) [cyclic nNOS β-hairpin peptide Q124A]
21200	14.1	–	–	cyclo(THLATTFTGDGTPKTIRVTQ[dP]GQ) (SMILES CC[C@H](C)[C@@H]1NC(=O)[C@H]([C@@H](C)O)NC(=O)[C@H](CCCCN)NC(=O)[C@@H]2CCCN2C(=O)[C@H]([C@@H](C)O)NC(=O)CNC(=O)[C@H](CC(=O)O)NC(=O)CNC(=O)[C@H]([C@@H](C)O)NC(=O)[C@H](Cc2ccccc2)NC(=O)[C@H]([C@@H](C)O)NC(=O)[C@H]([C@@H](C)O)NC(=O)[C@H](C)NC(=O)[C@H](CC(C)C)NC(=O)[C@H](Cc2c[nH]cn2)NC(=O)[C@H]([C@@H](C)O)NC(=O)[C@H](CCC(N)=O)NC(=O)CNC(=O)[C@H]2CCCN2C(=O)[C@H](CCC(N)=O)NC(=O)[C@H]([C@@H](C)O)NC(=O)[C@H](C(C)C)NC(=O)[C@H](CCCNC(=N)N)NC1=O) [cyclic nNOS β-hairpin peptide E108A]
